Test results from patent publication US20260174888A1 (ARARIS BIOTECH, published 2026).
Where two headings read alike, the source gives them in different places.

B1: ARA-20-RKAA-PABC-MMAE (antibody, human IgG1, kappa, V domains shown)
VH: EVQLVESGGGVVQPGRSLRLSCSASGFDFTTYWMSWVRQAPGKGLEWIGEIHPDSSTINYAPSLKDRFTISRDNAKNTLFLQMDSLRPEDTGVYFCASLYFGFPWFAYWGQGTPVTVSS
VL: DIQLTQSPSSLSASVGDRVTITCKASQDVGTSVAWYQQKPGKAPKLLIYWTSTRHTGVPSRFSGSGSGTDFTFTISSLQPEDIATYYCQQYSLYRSFGQGTKVEIKR
modifications: linker-payload RKAA-PABC-MMAE (FIG. 6) conjugated by MTG to the native, glycosylated antibody; conjugated residue not stated in the example
B2: ARA-20-FA-PEG24-RKAA-PABC-MMAE (antibody, human IgG1, kappa, V domains shown)
VH: B1 VH
VL: B1 VL
modifications: linker-payload FA-PEG24-RKAA-PABC-MMAE (FIG. 3) conjugated by MTG to the native, glycosylated antibody; conjugated residue not stated in the example
B3: ARA-20-ARK-PABC-MMAE (antibody, human IgG1, kappa, V domains shown)
VH: B1 VH
VL: B1 VL
modifications: linker-payload ARK-PABC-MMAE conjugated by MTG to the native, glycosylated antibody; conjugated residue not stated in the example
B4: ARA-20-FA-PEG12-ARK-PABC-MMAE (antibody, human IgG1, kappa, V domains shown)
VH: B1 VH
VL: B1 VL
modifications: linker-payload FA-PEG12-ARK-PABC-MMAE (FIG. 5) conjugated by MTG to the native, glycosylated antibody; conjugated residue not stated in the example
B5: ARA-20-FA-PEG12-RKAA-PABC-MMAE (antibody, human IgG1, kappa, V domains shown)
VH: B1 VH
VL: B1 VL
modifications: linker-payload FA-PEG12-RKAA-PABC-MMAE (FIG. 4) conjugated by MTG to the native, glycosylated antibody; conjugated residue not stated in the example

Experiments:
[1] = biological target: T1, CEACAM-5 (UniProt P06731 35-702, limits assumed); test: cell-based or functional assay
T1 sequence (looked up): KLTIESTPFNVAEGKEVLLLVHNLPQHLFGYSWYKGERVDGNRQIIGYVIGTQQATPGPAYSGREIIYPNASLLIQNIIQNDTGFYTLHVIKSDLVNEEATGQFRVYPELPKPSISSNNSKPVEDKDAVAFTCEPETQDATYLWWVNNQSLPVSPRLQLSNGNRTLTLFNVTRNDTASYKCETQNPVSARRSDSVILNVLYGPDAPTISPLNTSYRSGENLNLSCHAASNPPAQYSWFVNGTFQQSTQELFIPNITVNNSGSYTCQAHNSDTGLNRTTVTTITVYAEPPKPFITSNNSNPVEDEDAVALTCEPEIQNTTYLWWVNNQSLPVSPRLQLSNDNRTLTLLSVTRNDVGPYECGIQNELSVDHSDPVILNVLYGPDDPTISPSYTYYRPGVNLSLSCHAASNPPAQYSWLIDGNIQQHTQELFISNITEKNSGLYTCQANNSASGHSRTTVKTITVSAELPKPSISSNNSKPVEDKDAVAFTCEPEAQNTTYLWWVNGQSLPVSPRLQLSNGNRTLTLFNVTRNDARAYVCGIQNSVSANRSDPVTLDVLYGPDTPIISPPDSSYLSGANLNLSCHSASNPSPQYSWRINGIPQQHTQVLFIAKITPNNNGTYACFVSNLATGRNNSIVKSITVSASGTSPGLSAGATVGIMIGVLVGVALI

[2] = biological target: T1, CEACAM-5; test: cell-based or functional assay; remark: listed apart in the source

Row | Binder | IC50 (nM), cytotoxicity on NCI-H2110 cells, CellTiterGlo viability, 96 hours [1] [nM] | IC50 (nM), cytotoxicity on NCI-H2110 cells, CellTiterGlo viability, 96 hours [2] [nM]
1 | B1 | 30.2 | –
2 | B2 | 5.93 | –
3 | B3 | – | 58
4 | B4 | – | 27.8
5 | B5 | 4.68 | –
